Reference: the nanobody polyreactivity screen of Harvey et al. (2022)

Assay: yeast display, Sf9 membrane polyspecificity reagent, FACS + sequencing; frameworks hold sequencing errors
Method in brief: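 Synthetic nanobody libraries on Saccharomyces cerevisiae BJ5465 were galactose-induced for 36–48 hours, stained 1 hour at 4 °C with 10% biotinylated, detergent-solubilized Sf9 membrane reagent and enriched on streptavidin microbeads. FACS then separated cells into low and high (top ~1%) gates by anti-HA (expression) and streptavidin (reagent binding) fluorescence. Genes were colony-PCR amplified, MiSeq 2 × 250 sequenced and CDR-length filtered. A clone's polyreactivity label is that of its gate of origin.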

Sequence | polyreactivity (PSR sort gate)
QVQLVESGGGLVQAGGSLRLSCAASGRIFLFYDMGWYRQAPGKERELVATISFRGGSTYYADSVKGRFTISRDNAKNTVYLQMNSLKPEDTAVYYCAKQNKRGYSTSAYYYWGQGTQVTVSS | low polyreactivity
QVQHVESGGGLVQAGGSLRLSCASSGSTFWAYAMGWYRLAPGKERELVATITGSVGGTYYADSVKGRFTISRDNAKNTVYLQMNSLKPEDTAVYYCATDAYVKGVYEISEDRVDYWGQGTQVTVSS | low polyreactivity
QVQLVESGGGLVQAGCSLRLSCAASGSIFKQNTMGWYRQAPGKERELVAAISSGGSTYYADSVKGRFTISRDNAKNTVYLQMNSLKPEDTAVYYCAAVTVIGGEYDYWGQGTQVTVSS | low polyreactivity
QFQLVESGGGLVQAGGSLRLSCAASGRTFRYYTMGWYRQAPGKEREFVAVITVNGGSTYYADSVKGRFTISRDNAKNTVYLQMNSLKPEDTAVYYCAKSYGSRHRYWPLYYWGQGTQVTVSS | high polyreactivity
QVQLVESGGGLVQAGGSLRLSCAASGRTFRANTMGWYRQAPGKERELVAAITWSGASTYYADSVKGRFTISRDNAKNTVYLQMNSLKPEDTAVYYCNAGWDSGIVQSDETVYKYDYWGQGTQVTVSS | low polyreactivity
PDQLVESGGGLVQAGGSLRLSCAASGFIFTYYAMGWYRQAPGKERELVAAITRRGGSTYYADSVKGRFTISRDNAKNTVYLQMNRLKPEDTAVYYCNKVDQGRYGYWGQGTQVTVSS | high polyreactivity
QVQLQESCGGLVQAGGSLRLSCAASGTIFRFRYMAWHRQAPGKERELVAGINGGTTTYYADSVIGLFTISRDNAKNTVYLQMNSLKPDDTAVYNCAAGASRLTYYDYWGQGTQVTVIS | low polyreactivity
QVQLVESGGGLVQAGGSLRLSCAASGNIFFRNAMGWYRQAPGKERELVAAISWRGTSTYYADSVKGRFTISRDNAKNTVYLQMNSLKPEDTAVYYCAARGLWPYDYWGQGTQVTVSS | low polyreactivity
QVQLVESGGGLVQAGGSLRLSCAASGITFIGYVMGWYRQAPGKERELVAAISRSGASTYYADSVKGRFTISRDNAKNTVYLQMNSLKPEDTAVYYSATVRYHPAYYYWGQGTQVTVSS | high polyreactivity
QVQLVESGGGLVQAGGSLRLSCAASGFIFGGYAMGWSRQAPGKERELVADISSSGGSTYYADSVKGRFTLSRDNAKNTVYLQMNSLKPEDTAVYDCAKVGWSRRYYYWGQGTQVTVSS | high polyreactivity
QVQLVESGGGLVQAGGSLRLSCAASGRIFVPNAMGWYRQAPGKERELVARISRSDGSTYYADSVKGRFTISRDNAKNTVYLQMNSLKPEDTAVYYCAASTTPRWWSFKYYYWGQGTEVTVSS | high polyreactivity
QVQLVESGGGLVQARGSLRLSCAASGFTFERYTMGWYRQAPGKERELVATISRRSGRTSYADSVKGRFTISRDNEMNSVYLQMNSLKPEDTAVYYCAVDDAYPDRYDYWGQGPQVTVSS | high polyreactivity
QVQLVESGGGLFQAGGSLRLSCAPSGFTFSWYDMGWYRQAPGKERELVAAISLSGDRTYYADSVKGRFTISRDNAKNTVYLQMNSLKPEDTAVYYCAADERVDQCWIRMDYWGQGTQVTVSS | low polyreactivity
QVQLVDSGGGLLQAGGSLRLSCAASGRIFVYNAMGWYRQAPGKERELVAAITRGGSTYYADSVKGRFTISRDNAKNTVDLQMNSLKPEDPAGYYCAADYAWVSIYDNVPSAPGYDDWGQGTQGTVSS | low polyreactivity
QVQLVESGGGLVQAGGSLRLSCAASGGIFTLYVRGWYRQAPGKERELVAAISRTGGSTYYADSVKGRFTISRDNAKNTVYLQMNSLKPEDTAVYFCAALYRGGTRYGGYDYWGQGTQVTVSS | low polyreactivity
QVQLVESGGGLVQAGGSLRLSCAASGFTFAKYAMGWSRQAPGKERELVAAIRSRGDTTYYADSVKGRFTISRDNAKNTVYFQMNSLKPEDTAVYYCAARSYFLVDCSRYDYWGQGSQVTVSS | high polyreactivity
QVQLVESGGGLVQAGGSLRLSCAASGITFVRNAMGWYRQAPGKEREFVAAISWSGGSTYYADSVKGRFTISRDNAKNTVYLQMNSLKPEDTAVYYCAKRSRGVKYDYWGQGTQVTVSS | high polyreactivity
QVQLVESGGGLVQAGGSLRLSCAASASTFVYYAMGWYRQAPGKERELVAAISRSGTSTYYADSVKGRFTISRDNAKNTVYLQMNSLKPEDTAVFYCNARKKQGFDYWGQGTQVTVSS | high polyreactivity
QVQLVESGGGLLQAGGSLRLSCAASGSTFYKYAMGWYRHAPRKERELVASISRSGRSTYYADSVKGRFTISRDNAKNTVYLQMNSLKPEDTAVYYCAATWRQHPGSMGYWGQGTQVTVSS | high polyreactivity
QVQLVESGGGLVQAGGSLSLSCAASGIISTYYVMGWYRQAPGKERELVAAITGGDSSTYYADSVKGRFTISRDNAKNTVYLQMNSLKPEDTAVYYCAKEYYYARGARYDYWGQGTQVTVSS | low polyreactivity
QVQLVESGGGLVQAGGSLRLSCAASGSTSNVYAMGWYRQAPGKERELVAAIRWSGGNTYYADSVKGRFTISRDNAKNTFYLQMNSLKPEDTAVYYCAAFYRYVSTIFDYWGQGTQVTVSS | high polyreactivity
QVQLVESGGGLVQAGGSLRISCAASGSSYGTYAMGWYRKAPGKERELVAAINFSGTSTYYADSVKGRFTISRDKAKHTVYLQMNRLKPEETADYYCAARFYWKYGRYDNWGQGTQVTVSS | high polyreactivity

Sequence | polyreactivity (PSR sort gate)
QVQLVESGGGLVQAGGSLRLSCASSGLTFELYAMGWYRQAPGKERELVAAITWSGGRTYYADSVKGRFTISRDNAKNTVYLQMNSLKPEDTAVYYCAADVYPGYVGSQEYDYWGQGTQVTVSS | low polyreactivity
QVQLVESGGGLVQAGGSLRLSCAASGRTFRAYAMGWYRQAPGKERELVAAISSRGGSTYYADSVKGRFTISRDNAKNTVYLQMNSLKPEDTAVYYCNVDRYVRGLITFDYWGQGTQVTVSS | high polyreactivity
QVQLVESGGGLVQAGGSLRLSCAASGSTFAVNVMGWYRQAPGKERELVATITYRDGRTYYADSVKGRFTISRDNAKNTVYLQMNSLNPEDTAVYYCAADDEYKQEAEMDSWGQGTQVTVSS | low polyreactivity
QVQLVETGGGLVQAGGSLRLRCAPSGSTFSEYAMGWYRQAPGKERELVPAITSGGITNYADSVKGRFTISRDNSKNTVYFKMNSLKPEDTAVYYCNTQDVYGDPVESLVDYDYWGQGTQVTVSS | high polyreactivity
QVQLVESGGGLVQAGGSLRLSCAASGRILSYYAMGWYRQAPGKERELVATISASGGSTFYADSVKGRFTISRDNAKNTVYLQMNSLKPEDTAVYYCNAYWGRRVQRDYWGQGTQVTVSS | high polyreactivity
QVQLVESGGGLVQAGGSLRLSCAASGFTFLGNAMGWYRQAPGKERELVATITSGGNTKYADSVKGRFTISRDNAKNTVYFQINSLKPEDTAVYYFARDRKRQADDICEFDYWGQGSQVTVSS | low polyreactivity
QVQLVESGGGLVQAGGSLRLSCAASGSTFPVNAMGWYRQAPGKERELVAAISSRGSSTYYADSVKGRFTISRDNAKNTVYLQMNSLKPVDTAVYYCAAPQRYPRFYYWGQGTQVTVSS | high polyreactivity
QVQLVESGGGLVQAGGSLRLSCAASGSTFGIYAMGWYRQAPGKERELVAAITWRGSSTYYADSVKGRFTISRDNAKNTVYLQMNSLKPEDTAVYYCAAEDTFYEYYSWGQGTQVTVSS | high polyreactivity
QVQHGESGGGLVQAGSSLRLSCAASGSTIVNNAMGWYRQAPGKERELVAANTSGGSTNYADSVKGRFTISRDNAKNTVYLQMNSLKPEDTAVYYSNADGDSWYTGIPAVSHGYWGQGTQVTVSS | low polyreactivity
QVQLVESGGGLVQAGGSLRLSCAASGRTFFGRNVMGWYRPAPGNDRELVAAITSSGASTYYADSVKGRFTISRDNAKNTVYLQMNSLKPEDTAVYYCAAVRYVWQGYDYWGQGTQVTVSS | high polyreactivity
QVQLQEGGGGQVQAGGSLRLSCAASGYITNGDVMGWSRQAPGEERELVASSGLDATTNYADSVKGRFTISRDNAKMTVYLQMNSLKPEDTAVYYCAADVGSGVLCGYWGQGTQMTVSS | high polyreactivity
QVQLVESGGGLVQAGGSLRLSCAASGLIFRHYAMGWYRQAPGKERELVDAITRSGGSTNYADSVKGRFTISRDNAKNTVYLQMNSLKPEDTAVYYCNAGIRYFVVGRSSYDYWGQGTQVTVSS | low polyreactivity
QVQLVESGAGLVQAGGSLRLSCAASGNTFYQYAMGWYRQAPGKERELVAAIDWSGGSTYADSVKGRFTISRDNAKNTVYLQMNSLKPEDTAVYYCEKYTYDYWGQGTQVTVSS | low polyreactivity
QVQLVESGGGLVQAGGSLRLSCAASGITFGYYAMGWYRQAPGKERELVAAISNSGRTYYADSVKGRFTISRDNAKNTVYLQMNILKPEDTAVYYCAAEDAYYDFYYWGQGTKVTVSS | low polyreactivity
QVQLVESGGGLVQAGGSLRLSCAASGSIFRKNAMGWYRQAPGKERELVATISGGGSTTYADSVKGRFTISRDNAKNTVYLQMNSLKPEDTADYYCAARSTWFQIRYGYWGQGTQVTVSS | high polyreactivity
QVQLVESGGGLVQAGGSLRLSCAASGFIFGSNAMGWYRQAPGKERELVAAISRSGGSTYYADSVKGRFTISRDNAKNTVYLQMNSLKPEDTAVYYCASYLYKSRYLPEYDYWGQGTQVTVSS | high polyreactivity
QVQLVESGGGLVQAGGSLRLSCAPSGIIAKHNAMGWYRQAPGKERELVAAITSGSITNYADSVKGRFTISRDNAKNTLYLQMNSLKPEDTAVYYCAKRVDAYGWWGRRSGVLSDYWGQGTQVTVSS | low polyreactivity
QVQLVESGGGLVQAGGSLRLRCAASGLMFYDNMGCYRQAPGKERELVAAISSSGGSTSYADSVKGRFTISRDNAKNTVYLQMNSLKPEDTAVYYCAAKWSLVRDCPKYDYWGQGTQVTVSS | low polyreactivity
QVQLVESGGGLVQAGGSLRLSCAASGRIIYYAMGRYRQAPGKERELVAAITRNGGTYADSVKGRFTISRDNSKNTVYLPMISLKAEDSAVYYCNADPDFGDDYWGQGTQVTVSS | low polyreactivity
QVQLVESGGGLVQAGGSLRLSCAASGRTLGTYAMGWYRQAPGKERELVAAITSGGSTYYADSVKGRFTISRDNAKNTVYLQMNSLKPEDTAVYYRATYSYYYWGQGTQVTVSS | low polyreactivity
QVQLVESGGGLVQAGGSLRLSCAASGSTFGYYAMGWYRQAPGKERELVAAIRSSGGGTYYADSVKGRFTISRDNAKNTVYLQMNSLKPEDTAVYYCATDAPILVNAEYDEWLEYDYWGQGTQVTVSS | low polyreactivity
